Legend:
[1] = tested on: HT-29 tumors; test: Biodistribution of chromophore-polymer in HT-29 tumored mice after intravenous injection; format: in vivo, female immunodeficient mice; conditions: for injected dose localized in the tumor: after one hour, solution in phosphate buffered saline injected
Protocol: General Method Used For the Measurement of Chromophore-Polymer Distribution in the Mouse
Tac:N:NIH(S)-nufDF, female immunodef icient mice
Tac:Cr:NCr-nufBr, female immunodeficient mice
HT29-Human Colon Carcinoma
The mice were randomised into groups based on tumor volumes. On the day of the study, the test articles (Polymers 1,2) were injected into the mice via the tail vein. Chloroaluminium phthalocyanine tetrasulfonate was used as a reference compound (control) in one group of mice in these studies. […] The blood was collected by heart puncture and put into either EDTA or Lithium Heparin tubes. The samples were then spun down and the plasma was collected and weighed. The spleen, liver, kidneys, muscle and tumor were collected, rinsed with PBS and weighed in pre-tared tubes. The samples were then either refrigerated for immediate analysis or frozen at −20 degrees Celsius and subsequently analysed.
B) Plasma Collection and Preparation
Plasma was collected in tared Eppendorf tubes and the tubes were weighed. To each tube was added 1 mL of ethanol. The contents of the tubes were mixed with a vortex mixer and then micro-centrifuged at 14000 rpm for 2 min. The supernatant liquid was transferred by pipette into a clean and labelled Eppendorf tube. This procedure was repeated for all plasma samples. Each sample was transferred to a clean cuvette and the amount of chromophore was determined by absorbance at a predetermined wavelength. Concentration of the chromophore in the sample was determined by comparison with a standard curve generated from known concentrations of chromophore.
C) Organ Collection and Preparation
Organs were removed from the mice, placed in tared sample tubes, and the new weights were recorded. To each tube was added 1 mL of deionised water, and the organs were homogenised. The homogenate was transferred into a tared Eppendorf tube and the weight was recorded. To this homogenate was added 500 μl of ethanol, the mixture was mixed by vortex mixer, and the contents of the tube was centrifuged in a micro-centrifuge at 8000 rpm for 2 min. The supernatant was transferred by pipette into a clean Eppendorf tube. To the residual pellet was added 500 μl of ethanol, the mixture was mixed by shaking vigorously in a vortex mixer, and the sample was centrifuged again. The supernatants were combined, transferred to a clean cuvette, and the concentration of the chromophore was determined spectroscopically at pre-determined absorbance by comparison with the standard curve. The mean concentration of the chromophore in each organ was determined by regressional analysis.

[2] = Solubility of Sudan III; format: physicochemical
[3] = tested on: HT-29 tumors; test: Photographic / visual light imaging of HT-29 tumors from mice 24 hours post injection of contrast agent; format: in vivo, female immunodeficient mice
Protocol: FIG. 4 is a photograph taken under room fluorescent light of female immunodeficient mice with exposed human HT-29 tumors 24 hours post intravenous (tail vein) injection with 0.1 mg/(g body weight) in PBS of the blue contrast agent NC100526. The labeled sheet to the right of the mice was spotted with PBS solutions of several contrast agents of this invention and then dried in order to show how they appear under various illumination and imaging conditions. The tumors (indicated by arrows) have been sliced to expose their interiors as well as their exteriors.
The light source was ambient fluorescent room light.
The photograph was taken with black-and-white infrared film using irradiation at 780 nm from an array of light-emitting diodes. These conditions gave maximum absorption and contrast enhancement of NC100448 as evidenced by the darkened spot of contrast agent on the paper chart.
FIGS. 8a and 8b are photographs of two views taken from different angles of HT-29 tumors sliced open and removed from mice at 24 hours post injection with 10 mg/(g body weight) of NC100505 in PBS and irradiated with 366 nm wavelength light. […] In the black and white photograph they appear as bright spots. Other organs and the skin appear normal.
FIG. 10a is a photograph of a collection of excised tumors viewed under ambient fluorescent room light. The top row contains tumors resected from mice at 24 hours post i.v. injection with NC100505 in PBS. The second, third, and fourth rows are tumors resected from mice 24 hours post i.v. injection with PBS solutions of NC100526, NC100448, and NC100524, respectively. […]
FIG. 11 is a photograph of a set of excised tumors irradiated with 780 nm infrared light that were removed from mice 24 hours post injection with PBS solutions of NC100448 (top row) and indocyanine green (bottom row). The image was recorded with an infrared sensitive CCD camera (Bischke, Type N-CCD-4024, fitted with a Computar TV Zoom lens 1:1.2/12.5-75) on VHS tape (Maxell HGX Plus) at 30 frames/sec using a Panasonic AG-1310P HQ Video Cassette Recorder with super 4-Head VHS SQPB). […]

[4] = female immunodeficient mice with HT-29 tumors
[5] = one hour post intravenous injection of phosphate buffered saline solution, mice with HT-29 tumors
[6] = 6 hr after injection, Table 2, female immunodeficient mice with HT-29 tumors
[7] = 48 hr after injection, Table 2, mice with HT-29 tumors
[8] = within 24 hours, Table 2 experiment
[9] = three hours post intravenous injection of phosphate buffered saline solution, mice with HT-29 tumors
[10] = 3 hr, i.v. 0.05 mg/(g body weight) in PBS, HT 29 tumored mice
[11] = 6 hr, i.v. 0.05 mg/(g body weight) in PBS, HT 29 tumored mice
[12] = 24 hr, i.v. 0.05 mg/(g body weight) in PBS, HT 29 tumored mice
[13] = at 24 hours, i.v. 0.05 mg/(g body weight) in PBS
[14] = three hours versus one hour post intravenous injection

For “Aluminum Chlorophthalocyanine Tetrasulfonyl Chloride Polymer With PEG5,000-α,ω-diamine [Polymer 2]”, the “injected dose localized in the tumor” value [1, 4] was 2.5% and the “detection in the tumor” value [1, 5] was “detected in the tumor”.

For “Aluminum Chlorophthalocyaninetetrasulfonyl Chloride Polymer With PEG3,400-α,ω-diamine [Polymer 1]”, the “injected dose localized in the tumor” value [1, 4] was 4% and the “detection in the tumor” value [1, 5] was “detected in the tumor”.

With “[PcAlCl(SO3H)3SO2NH]2[PEG 10,000] [NC100481]” the Muscle [1, 6] was 10.3 ± 17.9 percent injected dose of the contrast agent per gram of tissue, the Plasma [1, 6] was 7.4 ± 0.3 percent injected dose of the contrast agent per gram of tissue and the Tumor [1, 6] was 21.0 ± 7.1 percent injected dose of the contrast agent per gram of tissue. The Tumor ([1]; 24 hr after injection, Table 2, mice with HT-29 tumors) was 16.6 ± 3.9 percent injected dose of the contrast agent per gram of tissue, the Muscle [1, 7] was 59.5 ± 42.9 percent injected dose of the contrast agent per gram of tissue and the Tumor [1, 7] was 9.1 ± 4.5 percent injected dose of the contrast agent per gram of tissue. For the same compound, the “concentration of contrast agent in the tumor (in words)” value ([1]; after 48 hours, Table 2 experiment) was “remained at a high concentration”, the “clearance of contrast agent from the blood (in words)” value [1, 8] was “cleared” and the “clearance of contrast agent from the muscle (in words)” value [1, 8] was “cleared”.

With ClAlPc(SO2NHPEG5000)4 [Example 20] the “injected dose localized in the tumor” value [1, 4] was 2.5%.

With “[NH(PEG3400)NHSO2PcAlCl (SO3H)2SO2]n [Example 18]” the “injected dose localized in the tumor” value [1, 4] was 4%.

In the case of “chloroaluminum phthalocyanine tetrasulfonate [reference compound]”, the “detection in the tumor” value [1, 5] is reported as “negligibly detected”.

For `CC1(C)C(/C=C/C=C/C=C/C=C2\N(CCCCS(=O)(=O)O)c3ccc4ccccc4c3C2(C)C)=[N+](CCCCS(=O)(=O)[O-])c2ccc3ccccc3c21` [indocyanine green, reference compound], the “detection in the tumor” value [1, 5] was “negligibly detected” and the “detection in the tumor” value [1, 9] was “negligibly detected”.

With `Oc1ccc2ccccc2c1N=Nc1ccc(N=Nc2ccccc2)cc1` [Sudan III] the “solubility in sesame oil” value [2] was “soluble in sesame oil” and the solubility in water [2] was “very water insoluble”.

For “Bisthioether 2:1 Dye:Polymer Reaction Product Between 2-[2-[2-chloro-3-[[1,3-dihydro-1,1,-dimethyl-3-(3-sulfopropyl)-2H-benz[e]indol-2-ylidene]ethylidene]-5-(ethoxycarbonyl)-1-cyclohexen-1-yl]ethenyl]-1,1-dimethyl-3-(3-sulfopropyl)-1H-benz[e]indolium, Inner Salt, Sodium Salt and Disodium PEG3,400-α,ω-dithiolate [NC100448]”, the “appearance of tumors, black-and-white infrared film, irradiation at 780 nm” value ([3]; 24 hours after injection of 0.05 mg/(g body weight) in PBS, versus control tumors) was “uniformly darker than control tumors”, the “appearance of excised tumors irradiated with 780 nm infrared light, infrared sensitive CCD camera” value ([3]; 24 hours post injection in PBS, compared to tumors from mice injected with ICG) was “significantly darker” and the “contrast agent / darkening along the tumor edges” value ([3]; 24 hours post injection, sliced tumors) was “do not show darkening around the edges”. For the same compound, the Plasma [1, 10] was 14.33 ± 1.33 percent injected dose of the contrast agent per gram of tissue, the Tumor [1, 10] was 5.57 ± 0.73 percent injected dose of the contrast agent per gram of tissue and the Plasma [1, 11] was 8.44 ± 1.33 percent injected dose of the contrast agent per gram of tissue. For the same compound, the Tumor [1, 11] was 8.6 ± 1.53 percent injected dose of the contrast agent per gram of tissue, the Plasma [1, 12] was 0.46 ± 0.40 percent injected dose of the contrast agent per gram of tissue and the Tumor [1, 12] was 7.53 ± 0.74 percent injected dose of the contrast agent per gram of tissue. The “clearance of contrast agent from the blood (in words)” value [1, 13] was “largely cleared”, the “concentration of contrast agent in the tumors (in words)” value [1, 13] was “remained relatively high” and the “contrast agent in the muscle (in words)” value [1, 13] was “not increased”. For the same compound, the “detection in the tumor” value [1, 5] was “detected in the tumor”, the “detection in the tumor” value [1, 9] was “detected in the tumor” and the “concentration of the contrast agent in the blood, FIG. 3B relative to FIG. 3A” value [1, 14] was “decreased”. For the same compound, the “concentration of the contrast agent in the tumor, FIG. 3B relative to FIG. 3A” value [1, 14] was “increased”.
